Starred links: 1 amine or outer side, 2 acyl side, 3 side chain; linkers in the order of their positions; H or OH if unused. Non-standard residues stand in square brackets, D forms with d. Groups on a side chain read outwards from the residue. No end group written: not given here. *: point of attachment. C18 diacid = O=C(O)CCCCCCCCCCCCCCCCC(=O)*; γGlu = O=C(O)[C@H](CCC(=O)[*:2])N[*:1]; Ac4c = NC1(C(=O)O)CCC1; AEEA = NCCOCCOCC(=O)O; Aib = CC(C)(N)C(=O)O
B1: N^ε24-[2-[2-[2-[[2-[2-[2-[[(4S)-4-carboxy-4-[[(4S)-4-carboxy-4-[[(4S)-4-carboxy-4-(17-carboxyheptadecanoylamino)butanoyl]amino]butanoyl]amino]butanoyl]amino]eth … (peptide)
peptide: H[Aib]QGTFTSDYSKYLDLRRARDFVK([AEEA-AEEA-γGlu-γGlu-γGlu-C18 diacid])WLIST-NH2
modifications: N-terminus assumed
SMILES: CC[C@H](C)[C@H](NC(=O)[C@H](CC(C)C)NC(=O)[C@H](Cc1c[nH]c2ccccc12)NC(=O)[C@H](CCCCNC(=O)COCCOCCNC(=O)COCCOCCNC(=O)CC[C@H](NC(=O)CC[C@H](NC(=O)CC[C@H](NC(=O)CCCCCCCCCCCCCCCCC(=O)O)C(=O)O)C(=O)O)C(=O)O)NC(=O)[C@@H](NC(=O)[C@H](Cc1ccccc1)NC(=O)[C@H](CC(=O)O)NC(=O)[C@H](CCCNC(=N)N)NC(=O)[C@H](C)NC(=O)[C@H](CCCNC(=N)N)NC(=O)[C@H](CCCNC(=N)N)NC(=O)[C@H](CC(C)C)NC(=O)[C@H](CC(=O)O)NC(=O)[C@H](CC(C)C)NC(=O)[C@H](Cc1ccc(O)cc1)NC(=O)[C@H](CCCCN)NC(=O)[C@H](CO)NC(=O)[C@H](Cc1ccc(O)cc1)NC(=O)[C@H](CC(=O)O)NC(=O)[C@H](CO)NC(=O)[C@@H](NC(=O)[C@H](Cc1ccccc1)NC(=O)[C@@H](NC(=O)CNC(=O)[C@H](CCC(N)=O)NC(=O)C(C)(C)NC(=O)[C@@H](N)Cc1c[nH]cn1)[C@@H](C)O)[C@@H](C)O)C(C)C)C(=O)N[C@@H](CO)C(=O)N[C@H](C(N)=O)[C@@H](C)O
notes: also called Chem. 12; Chem 12
B2: N^ε28-[2-[2-[2-[[2-[2-[2-[[(4S)-4-carboxy-4-[[(4S)-4-carboxy-4-[[(4S)-4-carboxy-4-(17-carboxyheptadecanoylamino)butanoyl]amino]butanoyl]amino]butanoyl]amino]eth … (peptide)
peptide: H[Aib]QGTFTSDLSKYLDARRAQDFVQWLIK([AEEA-AEEA-γGlu-γGlu-γGlu-C18 diacid])T-NH2
modifications: N-terminus assumed
SMILES: CC[C@H](C)[C@H](NC(=O)[C@H](CC(C)C)NC(=O)[C@H](Cc1c[nH]c2ccccc12)NC(=O)[C@H](CCC(N)=O)NC(=O)[C@@H](NC(=O)[C@H](Cc1ccccc1)NC(=O)[C@H](CC(=O)O)NC(=O)[C@H](CCC(N)=O)NC(=O)[C@H](C)NC(=O)[C@H](CCCNC(=N)N)NC(=O)[C@H](CCCNC(=N)N)NC(=O)[C@H](C)NC(=O)[C@H](CC(=O)O)NC(=O)[C@H](CC(C)C)NC(=O)[C@H](Cc1ccc(O)cc1)NC(=O)[C@H](CCCCN)NC(=O)[C@H](CO)NC(=O)[C@H](CC(C)C)NC(=O)[C@H](CC(=O)O)NC(=O)[C@H](CO)NC(=O)[C@@H](NC(=O)[C@H](Cc1ccccc1)NC(=O)[C@@H](NC(=O)CNC(=O)[C@H](CCC(N)=O)NC(=O)C(C)(C)NC(=O)[C@@H](N)Cc1c[nH]cn1)[C@@H](C)O)[C@@H](C)O)C(C)C)C(=O)N[C@@H](CCCCNC(=O)COCCOCCNC(=O)COCCOCCNC(=O)CC[C@H](NC(=O)CC[C@H](NC(=O)CC[C@H](NC(=O)CCCCCCCCCCCCCCCCC(=O)O)C(=O)O)C(=O)O)C(=O)O)C(=O)N[C@H](C(N)=O)[C@@H](C)O
notes: also called Chem. 7; Chem 7
B3: N^ε28-[2-[2-[2-[[2-[2-[2-[[(4S)-4-carboxy-4-[[(4S)-4-carboxy-4-[[(4S)-4-carboxy-4-(17-carboxyheptadecanoylamino)butanoyl]amino]butanoyl]amino]butanoyl]amino]eth … (peptide)
peptide: H[Aib]QGTFTSDLSKYLESRRAQDFVQWLIK([AEEA-AEEA-γGlu-γGlu-γGlu-C18 diacid])T-NH2
modifications: N-terminus assumed
SMILES: CC[C@H](C)[C@H](NC(=O)[C@H](CC(C)C)NC(=O)[C@H](Cc1c[nH]c2ccccc12)NC(=O)[C@H](CCC(N)=O)NC(=O)[C@@H](NC(=O)[C@H](Cc1ccccc1)NC(=O)[C@H](CC(=O)O)NC(=O)[C@H](CCC(N)=O)NC(=O)[C@H](C)NC(=O)[C@H](CCCNC(=N)N)NC(=O)[C@H](CCCNC(=N)N)NC(=O)[C@H](CO)NC(=O)[C@H](CCC(=O)O)NC(=O)[C@H](CC(C)C)NC(=O)[C@H](Cc1ccc(O)cc1)NC(=O)[C@H](CCCCN)NC(=O)[C@H](CO)NC(=O)[C@H](CC(C)C)NC(=O)[C@H](CC(=O)O)NC(=O)[C@H](CO)NC(=O)[C@@H](NC(=O)[C@H](Cc1ccccc1)NC(=O)[C@@H](NC(=O)CNC(=O)[C@H](CCC(N)=O)NC(=O)C(C)(C)NC(=O)[C@@H](N)Cc1c[nH]cn1)[C@@H](C)O)[C@@H](C)O)C(C)C)C(=O)N[C@@H](CCCCNC(=O)COCCOCCNC(=O)COCCOCCNC(=O)CC[C@H](NC(=O)CC[C@H](NC(=O)CC[C@H](NC(=O)CCCCCCCCCCCCCCCCC(=O)O)C(=O)O)C(=O)O)C(=O)O)C(=O)N[C@H](C(N)=O)[C@@H](C)O
notes: also called Chem. 8; Chem 8
B4: N^ε28-[2-[2-[2-[[2-[2-[2-[[(4S)-4-carboxy-4-[[(4S)-4-carboxy-4-[[(4S)-4-carboxy-4-(17-carboxyheptadecanoylamino)butanoyl]amino]butanoyl]amino]butanoyl]amino]eth … (peptide)
peptide: H[Aib]QGTFTSDLSKYLDARRAREFVQWLIK([AEEA-AEEA-γGlu-γGlu-γGlu-C18 diacid])T-NH2
modifications: N-terminus assumed
SMILES: CC[C@H](C)[C@H](NC(=O)[C@H](CC(C)C)NC(=O)[C@H](Cc1c[nH]c2ccccc12)NC(=O)[C@H](CCC(N)=O)NC(=O)[C@@H](NC(=O)[C@H](Cc1ccccc1)NC(=O)[C@H](CCC(=O)O)NC(=O)[C@H](CCCNC(=N)N)NC(=O)[C@H](C)NC(=O)[C@H](CCCNC(=N)N)NC(=O)[C@H](CCCNC(=N)N)NC(=O)[C@H](C)NC(=O)[C@H](CC(=O)O)NC(=O)[C@H](CC(C)C)NC(=O)[C@H](Cc1ccc(O)cc1)NC(=O)[C@H](CCCCN)NC(=O)[C@H](CO)NC(=O)[C@H](CC(C)C)NC(=O)[C@H](CC(=O)O)NC(=O)[C@H](CO)NC(=O)[C@@H](NC(=O)[C@H](Cc1ccccc1)NC(=O)[C@@H](NC(=O)CNC(=O)[C@H](CCC(N)=O)NC(=O)C(C)(C)NC(=O)[C@@H](N)Cc1c[nH]cn1)[C@@H](C)O)[C@@H](C)O)C(C)C)C(=O)N[C@@H](CCCCNC(=O)COCCOCCNC(=O)COCCOCCNC(=O)CC[C@H](NC(=O)CC[C@H](NC(=O)CC[C@H](NC(=O)CCCCCCCCCCCCCCCCC(=O)O)C(=O)O)C(=O)O)C(=O)O)C(=O)N[C@H](C(N)=O)[C@@H](C)O
notes: also called Chem. 6; Chem 6
B5: N^ε24-[2-[2-[2-[[2-[2-[2-[[(4S)-4-carboxy-4-[[(4S)-4-carboxy-4-[[(4S)-4-carboxy-4-(17-carboxyheptadecanoylamino)butanoyl]amino]butanoyl]amino]butanoyl]amino]eth … (peptide)
peptide: H[Aib]QGTFTSDYSKYLDAKRAREFVK([AEEA-AEEA-γGlu-γGlu-γGlu-C18 diacid])WLIST-NH2
modifications: N-terminus assumed
SMILES: CC[C@H](C)[C@H](NC(=O)[C@H](CC(C)C)NC(=O)[C@H](Cc1c[nH]c2ccccc12)NC(=O)[C@H](CCCCNC(=O)COCCOCCNC(=O)COCCOCCNC(=O)CC[C@H](NC(=O)CC[C@H](NC(=O)CC[C@H](NC(=O)CCCCCCCCCCCCCCCCC(=O)O)C(=O)O)C(=O)O)C(=O)O)NC(=O)[C@@H](NC(=O)[C@H](Cc1ccccc1)NC(=O)[C@H](CCC(=O)O)NC(=O)[C@H](CCCNC(=N)N)NC(=O)[C@H](C)NC(=O)[C@H](CCCNC(=N)N)NC(=O)[C@H](CCCCN)NC(=O)[C@H](C)NC(=O)[C@H](CC(=O)O)NC(=O)[C@H](CC(C)C)NC(=O)[C@H](Cc1ccc(O)cc1)NC(=O)[C@H](CCCCN)NC(=O)[C@H](CO)NC(=O)[C@H](Cc1ccc(O)cc1)NC(=O)[C@H](CC(=O)O)NC(=O)[C@H](CO)NC(=O)[C@@H](NC(=O)[C@H](Cc1ccccc1)NC(=O)[C@@H](NC(=O)CNC(=O)[C@H](CCC(N)=O)NC(=O)C(C)(C)NC(=O)[C@@H](N)Cc1c[nH]cn1)[C@@H](C)O)[C@@H](C)O)C(C)C)C(=O)N[C@@H](CO)C(=O)N[C@H](C(N)=O)[C@@H](C)O
notes: also called Chem. 2; Chem 2
B6: N^ε24-[2-[2-[2-[[2-[2-[2-[[(4S)-4-carboxy-4-[[(4S)-4-carboxy-4-[[(4S)-4-carboxy-4-(17-carboxyheptadecanoylamino)butanoyl]amino]butanoyl]amino]butanoyl]amino]eth … (peptide)
peptide: H[Aib]QGTFTSDYSKYLDARRAREFVK([AEEA-AEEA-γGlu-γGlu-γGlu-C18 diacid])WLIST-NH2
modifications: N-terminus assumed
SMILES: CC[C@H](C)[C@H](NC(=O)[C@H](CC(C)C)NC(=O)[C@H](Cc1c[nH]c2ccccc12)NC(=O)[C@H](CCCCNC(=O)COCCOCCNC(=O)COCCOCCNC(=O)CC[C@H](NC(=O)CC[C@H](NC(=O)CC[C@H](NC(=O)CCCCCCCCCCCCCCCCC(=O)O)C(=O)O)C(=O)O)C(=O)O)NC(=O)[C@@H](NC(=O)[C@H](Cc1ccccc1)NC(=O)[C@H](CCC(=O)O)NC(=O)[C@H](CCCNC(=N)N)NC(=O)[C@H](C)NC(=O)[C@H](CCCNC(=N)N)NC(=O)[C@H](CCCNC(=N)N)NC(=O)[C@H](C)NC(=O)[C@H](CC(=O)O)NC(=O)[C@H](CC(C)C)NC(=O)[C@H](Cc1ccc(O)cc1)NC(=O)[C@H](CCCCN)NC(=O)[C@H](CO)NC(=O)[C@H](Cc1ccc(O)cc1)NC(=O)[C@H](CC(=O)O)NC(=O)[C@H](CO)NC(=O)[C@@H](NC(=O)[C@H](Cc1ccccc1)NC(=O)[C@@H](NC(=O)CNC(=O)[C@H](CCC(N)=O)NC(=O)C(C)(C)NC(=O)[C@@H](N)Cc1c[nH]cn1)[C@@H](C)O)[C@@H](C)O)C(C)C)C(=O)N[C@@H](CO)C(=O)N[C@H](C(N)=O)[C@@H](C)O
notes: also called Chem. 4; Chem 4

What follows are binders tested against T1, human GLP-1 receptor (human, UniProt P43220 24-463) (assay: displacement of [125I]-GLP-1-(7-36)NH2 from BHK membranes with human GLP-1R, SPA, no serum albumin).
T1 construct: whole, on cells; reporter assay used whole cells

| Binder | IC50 |
| --- | --- |
| B1 | 2.8 nM |
| B2 | 0.3 nM |
| B3 | 0.1 nM |
| B4 | 0.1 nM |
| B5 | 0.3 nM |
| H[Ac4c]QGTFTSDLSKYLESRRAREFVQWLIK([AEEA-AEEA-γGlu-γGlu-C18 diacid])T-NH2 (also called Chem. 18; Chem 18) | 0.1 nM |
| B6 | 0.1 nM |

What follows are binders tested against T1, human GLP-1 receptor (assay: cell-based or functional assay).

| Binder | GLP-1R EC50 (pM) [Assay (I)(a)], CRE luciferase reporter, BHK cells |
| --- | --- |
| B1 | 29 pM |
| B2 | 2 pM |
| B3 | 7 pM |
| B4 | 5 pM |
| B5 | 2 pM |
| H[Ac4c]QGTFTSDLSKYLESRRAREFVQWLIK([AEEA-AEEA-γGlu-γGlu-C18 diacid])T-NH2 (also called Chem. 18; Chem 18) | 4 pM |
| B6 | 3 pM |

Each binder was assayed against T2, human glucagon receptor (human, UniProt P47871 26-477) (assay: cell-based or functional assay).
T2 sequence (P47871 26-477): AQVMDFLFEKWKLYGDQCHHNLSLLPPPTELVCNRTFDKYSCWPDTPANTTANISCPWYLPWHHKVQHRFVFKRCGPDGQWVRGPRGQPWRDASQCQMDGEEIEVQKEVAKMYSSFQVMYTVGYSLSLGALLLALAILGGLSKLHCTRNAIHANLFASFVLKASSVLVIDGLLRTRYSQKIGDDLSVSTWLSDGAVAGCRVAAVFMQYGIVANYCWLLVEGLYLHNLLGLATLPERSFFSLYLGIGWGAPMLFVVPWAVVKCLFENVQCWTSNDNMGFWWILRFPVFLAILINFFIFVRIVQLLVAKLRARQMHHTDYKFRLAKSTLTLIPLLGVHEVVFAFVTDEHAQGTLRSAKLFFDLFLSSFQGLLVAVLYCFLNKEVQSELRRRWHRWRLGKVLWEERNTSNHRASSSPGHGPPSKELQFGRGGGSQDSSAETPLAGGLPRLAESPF

| Binder | GlucagonR EC50 (pM), [Assay (I)(b)], CRE luciferase reporter, BHK cells |
| --- | --- |
| B1 | 108 pM |
| B2 | 32 pM |
| B3 | 517 pM |
| B4 | 14 pM |
| B5 | 10 pM |
| H[Ac4c]QGTFTSDLSKYLESRRAREFVQWLIK([AEEA-AEEA-γGlu-γGlu-C18 diacid])T-NH2 (also called Chem. 18; Chem 18) | 32 pM |
| B6 | 12 pM |

Each binder was assayed against T2, human glucagon receptor (assay: displacement of [125I]-glucagon from BHK membranes with human glucagon receptor, SPA, no serum albumin).

| Binder | IC50 |
| --- | --- |
| B1 | 95.9 nM |
| B2 | 6 nM |
| B3 | 27.6 nM |
| B4 | 3.7 nM |
| B5 | 7.5 nM |
| H[Ac4c]QGTFTSDLSKYLESRRAREFVQWLIK([AEEA-AEEA-γGlu-γGlu-C18 diacid])T-NH2 (also called Chem. 18; Chem 18) | 11.1 nM |
| B6 | 3.9 nM |
